Among the data in US20200377590A1 (Hoffmann-La Roche, published 2020) are ELISA data values, retold here.

The chains are these.
T1: CD81 (UniProt P60033 1-236, limits assumed)
T1 construct: whole, on cells; also called CD81 receptor
T1 sequence (looked up): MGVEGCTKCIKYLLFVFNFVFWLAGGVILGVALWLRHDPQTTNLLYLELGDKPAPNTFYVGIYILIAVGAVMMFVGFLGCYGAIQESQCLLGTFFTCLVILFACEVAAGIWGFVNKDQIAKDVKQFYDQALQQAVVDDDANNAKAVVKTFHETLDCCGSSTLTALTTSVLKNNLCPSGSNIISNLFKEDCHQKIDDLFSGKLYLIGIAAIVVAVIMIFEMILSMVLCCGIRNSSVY

B1: CD81K04 HC JA_GG-14-hVH_1_69 / LC GG-03-hVK_4_1 (antibody, V domains shown)
VH: QVQLVQSGAEVKKPGSSVKVSCKASGYTFSSSWMNWVRQAPGQGLEWMGRIYSGDGDAIYNGKFKGKATITADESTSTAYMELSSLRSEDTAVYYCAREGKTGDLLLRSWGQGTLVTVSS
VL: DIVMTQSPDSLAVSLGERATINCKSSKSVSTSIYSYLAWYQQKPGQPPKLLIYYASYRESGVPDRFSGSGSGTDFTLTISSLQAEDVAVYYCQHSREFPFTFGQGTKLEIK
notes: human constant region
B2: CD81K04 HC JA_GG-14-hVH_1_69-GA / LC GG-03-hVK_4_1 (antibody, V domains shown)
VH: QVQLVQSGAEVKKPGSSVKVSCKASGYTFSSSWMNWVRQAPGQGLEWMGRIYSGDGDAIYNGKFKGKATITADESTSTAYMELSSLRSEDTAVYYCAREGKTGDLLLRSWGQGTLVTVSS
VL: DIVMTQSPDSLAVSLGERATINCKSSKSVSTSIYSYLAWYQQKPGQPPKLLIYYASYRESGVPDRFSGSGSGTDFTLTISSLQAEDVAVYYCQHSREFPFTFGQGTKLEIK
notes: human constant region
B3: CD81K04 HC JA_GG-14-hVH_1_69-GA / LC JA_GG-10-hVK_4_1 (antibody, V domains shown)
VH: QVQLVQSGAEVKKPGSSVKVSCKASGYTFSSSWMNWVRQAPGQGLEWMGRIYSGDGDAIYNGKFKGKATITADESTSTAYMELSSLRSEDTAVYYCAREGKTGDLLLRSWGQGTLVTVSS
VL: DIVMTQSPDSLAVSLGERATINCRASKSVSTSIYSYMHWYQQKPGQPPKLLIKYASYLESGVPDRFSGSGSGTDFTLTISSLQAEDVAVYYCEHSREFPFTFGQGTKLEIK
notes: human constant region
B4: CD81K04 HC JA_GG-15-hVH_1_3 / LC GG-04-hVK_4_1 (antibody, V domains shown)
VH: QVQLVQSGAEVKKPGASVKVSCKASGYTFSSSWMNWVRQAPGQRLEWMGRIYSGDGDAIYNGKFKGRVTITADTSASTAYMELSSLRSEDTAVYYCAREGKTGDLLLRSWGQGTLVTVSS
VL: DIVMTQSPDSLAVSLGERATINCKSSKSVSTSIYSYLAWYQQKPGQPPKLLIYYASTRESGVPDRFSGSGSGTDFTLTISSLQAEDVAVYYCQHSREFPYTFGQGTKLEIK
notes: human constant region
B5: CD81K04 HC JA_GG-16-hVH_1_3 / LC GG-02-hVK_4_1 (antibody, V domains shown)
VH: QVQLVQSGAEVKKPGASVKVSCKASGYTFSSSWMNWVRQAPGQGLEWMGRIYSGDGDAIYNGKFKGRVTITADTSASTAYMELSSLRSEDTAVYYCAREGKTGDLLLRSWGQGTLVTVSS
VL: DIVMTQSPDSLAVSLGERATINCKSSKSVSTSIYSYMHWYQQKPGQPPKLLIYYASYRESGVPDRFSGSGSGTDFTLTISSLQAEDVAVYYCQHSREFPFTFGQGTKLEIK
notes: human constant region
B6: CD81K04 HC JA_GG-14-hVH_1_69 / LC JA_GG-09-hVK_4_1 (antibody, V domains shown)
VH: QVQLVQSGAEVKKPGSSVKVSCKASGYTFSSSWMNWVRQAPGQGLEWMGRIYSGDGDAIYNGKFKGKATITADESTSTAYMELSSLRSEDTAVYYCAREGKTGDLLLRSWGQGTLVTVSS
VL: DIVMTQSPDSLAVSLGERATINCKSSKSVSTSIYSYMHWYQQKPGQPPKLLIKYASTRESGVPDRFSGSGSGTDFTLTISSLQAEDVAVYYCEHSREFPFTFGQGTKLEIK
notes: human constant region
B7: CD81K04 HC JA_GG-16-hVH_1_3 / LC GG-03-hVK_4_1 (antibody, V domains shown)
VH: QVQLVQSGAEVKKPGASVKVSCKASGYTFSSSWMNWVRQAPGQGLEWMGRIYSGDGDAIYNGKFKGRVTITADTSASTAYMELSSLRSEDTAVYYCAREGKTGDLLLRSWGQGTLVTVSS
VL: DIVMTQSPDSLAVSLGERATINCKSSKSVSTSIYSYLAWYQQKPGQPPKLLIYYASYRESGVPDRFSGSGSGTDFTLTISSLQAEDVAVYYCQHSREFPFTFGQGTKLEIK
notes: human constant region
B8: CD81K04 HC JA_GG-15-hVH_1_3 / LC JA_GG-10-hVK_4_1 (antibody, V domains shown)
VH: QVQLVQSGAEVKKPGASVKVSCKASGYTFSSSWMNWVRQAPGQRLEWMGRIYSGDGDAIYNGKFKGRVTITADTSASTAYMELSSLRSEDTAVYYCAREGKTGDLLLRSWGQGTLVTVSS
VL: DIVMTQSPDSLAVSLGERATINCRASKSVSTSIYSYMHWYQQKPGQPPKLLIKYASYLESGVPDRFSGSGSGTDFTLTISSLQAEDVAVYYCEHSREFPFTFGQGTKLEIK
notes: human constant region
B9: CD81K04 HC JA_GG-16-hVH_1_3 / LC GG-04-hVK_4_1 (antibody, V domains shown)
VH: QVQLVQSGAEVKKPGASVKVSCKASGYTFSSSWMNWVRQAPGQGLEWMGRIYSGDGDAIYNGKFKGRVTITADTSASTAYMELSSLRSEDTAVYYCAREGKTGDLLLRSWGQGTLVTVSS
VL: DIVMTQSPDSLAVSLGERATINCKSSKSVSTSIYSYLAWYQQKPGQPPKLLIYYASTRESGVPDRFSGSGSGTDFTLTISSLQAEDVAVYYCQHSREFPYTFGQGTKLEIK
notes: human constant region
B10: CD81K04 HC JA_GG-14-hVH_1_69-GA / LC GG-02-hVK_4_1 (antibody, V domains shown)
VH: QVQLVQSGAEVKKPGSSVKVSCKASGYTFSSSWMNWVRQAPGQGLEWMGRIYSGDGDAIYNGKFKGKATITADESTSTAYMELSSLRSEDTAVYYCAREGKTGDLLLRSWGQGTLVTVSS
VL: DIVMTQSPDSLAVSLGERATINCKSSKSVSTSIYSYMHWYQQKPGQPPKLLIYYASYRESGVPDRFSGSGSGTDFTLTISSLQAEDVAVYYCQHSREFPFTFGQGTKLEIK
notes: human constant region
B11: CD81K04 HC JA_GG-15-hVH_1_3 / LC GG-02-hVK_4_1 (antibody, V domains shown)
VH: QVQLVQSGAEVKKPGASVKVSCKASGYTFSSSWMNWVRQAPGQRLEWMGRIYSGDGDAIYNGKFKGRVTITADTSASTAYMELSSLRSEDTAVYYCAREGKTGDLLLRSWGQGTLVTVSS
VL: DIVMTQSPDSLAVSLGERATINCKSSKSVSTSIYSYMHWYQQKPGQPPKLLIYYASYRESGVPDRFSGSGSGTDFTLTISSLQAEDVAVYYCQHSREFPFTFGQGTKLEIK
notes: human constant region
B12: CD81K04 HC JA_GG-14-hVH_1_69 / LC JA_GG-08-hVK_4_1 (antibody, V domains shown)
VH: QVQLVQSGAEVKKPGSSVKVSCKASGYTFSSSWMNWVRQAPGQGLEWMGRIYSGDGDAIYNGKFKGKATITADESTSTAYMELSSLRSEDTAVYYCAREGKTGDLLLRSWGQGTLVTVSS
VL: DIVMTQSPDSLAVSLGERATINCKSSKSVSTSIYSYMHWYQQKPGQPPKLLIKYASYLESGVPDRFSGSGSGTDFTLTISSLQAEDVAVYYCEHSREFPFTFGQGTKLEIK
notes: human constant region
B13: CD81K04 HC JA_GG-15-hVH_1_3 / LC GG-03-hVK_4_1 (antibody, V domains shown)
VH: QVQLVQSGAEVKKPGASVKVSCKASGYTFSSSWMNWVRQAPGQRLEWMGRIYSGDGDAIYNGKFKGRVTITADTSASTAYMELSSLRSEDTAVYYCAREGKTGDLLLRSWGQGTLVTVSS
VL: DIVMTQSPDSLAVSLGERATINCKSSKSVSTSIYSYLAWYQQKPGQPPKLLIYYASYRESGVPDRFSGSGSGTDFTLTISSLQAEDVAVYYCQHSREFPFTFGQGTKLEIK
notes: human constant region
B14: CD81K04 HC JA_GG-15-hVH_1_3 / LC JA_GG-09-hVK_4_1 (antibody, V domains shown)
VH: QVQLVQSGAEVKKPGASVKVSCKASGYTFSSSWMNWVRQAPGQRLEWMGRIYSGDGDAIYNGKFKGRVTITADTSASTAYMELSSLRSEDTAVYYCAREGKTGDLLLRSWGQGTLVTVSS
VL: DIVMTQSPDSLAVSLGERATINCKSSKSVSTSIYSYMHWYQQKPGQPPKLLIKYASTRESGVPDRFSGSGSGTDFTLTISSLQAEDVAVYYCEHSREFPFTFGQGTKLEIK
notes: human constant region
B15: CD81K04 HC JA_GG-14-hVH_1_69-GA / LC JA_GG-09-hVK_4_1 (antibody, V domains shown)
VH: QVQLVQSGAEVKKPGSSVKVSCKASGYTFSSSWMNWVRQAPGQGLEWMGRIYSGDGDAIYNGKFKGKATITADESTSTAYMELSSLRSEDTAVYYCAREGKTGDLLLRSWGQGTLVTVSS
VL: DIVMTQSPDSLAVSLGERATINCKSSKSVSTSIYSYMHWYQQKPGQPPKLLIKYASTRESGVPDRFSGSGSGTDFTLTISSLQAEDVAVYYCEHSREFPFTFGQGTKLEIK
notes: human constant region
B16: CD81K04 HC JA_GG-16-hVH_1_3 / LC JA_GG-09-hVK_4_1 (antibody, V domains shown)
VH: QVQLVQSGAEVKKPGASVKVSCKASGYTFSSSWMNWVRQAPGQGLEWMGRIYSGDGDAIYNGKFKGRVTITADTSASTAYMELSSLRSEDTAVYYCAREGKTGDLLLRSWGQGTLVTVSS
VL: DIVMTQSPDSLAVSLGERATINCKSSKSVSTSIYSYMHWYQQKPGQPPKLLIKYASTRESGVPDRFSGSGSGTDFTLTISSLQAEDVAVYYCEHSREFPFTFGQGTKLEIK
notes: human constant region
B17: CD81K04 HC JA_GG-14-hVH_1_69 / LC JA_GG-10-hVK_4_1 (antibody, V domains shown)
VH: QVQLVQSGAEVKKPGSSVKVSCKASGYTFSSSWMNWVRQAPGQGLEWMGRIYSGDGDAIYNGKFKGKATITADESTSTAYMELSSLRSEDTAVYYCAREGKTGDLLLRSWGQGTLVTVSS
VL: DIVMTQSPDSLAVSLGERATINCRASKSVSTSIYSYMHWYQQKPGQPPKLLIKYASYLESGVPDRFSGSGSGTDFTLTISSLQAEDVAVYYCEHSREFPFTFGQGTKLEIK
notes: human constant region
B18: CD81K04 HC JA_GG-16-hVH_1_3 / LC JA_GG-10-hVK_4_1 (antibody, V domains shown)
VH: QVQLVQSGAEVKKPGASVKVSCKASGYTFSSSWMNWVRQAPGQGLEWMGRIYSGDGDAIYNGKFKGRVTITADTSASTAYMELSSLRSEDTAVYYCAREGKTGDLLLRSWGQGTLVTVSS
VL: DIVMTQSPDSLAVSLGERATINCRASKSVSTSIYSYMHWYQQKPGQPPKLLIKYASYLESGVPDRFSGSGSGTDFTLTISSLQAEDVAVYYCEHSREFPFTFGQGTKLEIK
notes: human constant region
B19: CD81K04 HC JA_GG-15-hVH_1_3 / LC JA_GG-08-hVK_4_1 (antibody, V domains shown)
VH: QVQLVQSGAEVKKPGASVKVSCKASGYTFSSSWMNWVRQAPGQRLEWMGRIYSGDGDAIYNGKFKGRVTITADTSASTAYMELSSLRSEDTAVYYCAREGKTGDLLLRSWGQGTLVTVSS
VL: DIVMTQSPDSLAVSLGERATINCKSSKSVSTSIYSYMHWYQQKPGQPPKLLIKYASYLESGVPDRFSGSGSGTDFTLTISSLQAEDVAVYYCEHSREFPFTFGQGTKLEIK
notes: human constant region
B20: CD81K04 HC JA_GG-14-hVH_1_69-GA / LC JA_GG-08-hVK_4_1 (antibody, V domains shown)
VH: QVQLVQSGAEVKKPGSSVKVSCKASGYTFSSSWMNWVRQAPGQGLEWMGRIYSGDGDAIYNGKFKGKATITADESTSTAYMELSSLRSEDTAVYYCAREGKTGDLLLRSWGQGTLVTVSS
VL: DIVMTQSPDSLAVSLGERATINCKSSKSVSTSIYSYMHWYQQKPGQPPKLLIKYASYLESGVPDRFSGSGSGTDFTLTISSLQAEDVAVYYCEHSREFPFTFGQGTKLEIK
notes: human constant region

The target in the test is T1, CD81. The experiment in a line: cell ELISA.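 Further: antibody binding to HuH7 cells expressing CD81 versus a CD81-negative HuH7 control line, bound antibody detected by secondary reagent, absorbance at 450 nm with 620 nm reference.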
B1 gave an ELISA data of 0.26. B2 had an ELISA data of 0.243. Take B3: the ELISA data was 0.733. Consider B4, for which the ELISA data is 0.3. B5: the ELISA data was found to be 0.596. Next, B6: 0.913. In turn, B7 displayed an ELISA data of 0.437.

B8 came in with an ELISA data of 0.915. B9 gave an ELISA data of 0.263. Next, B10: 0.211; B11: 0.602; B12: 0.835. On to B13, for which the ELISA data came to 0.545. With B14, the ELISA data worked out at 0.936. B15 showed an ELISA data of 0.888.

Turning to B16, the ELISA data was determined as 1.08. For B17, the ELISA data was determined as 0.77. Next, B18: 0.88; B19: 0.993. The result for B20 reads 0.836.
